Here are results for one molecule from paper PMC3797752 (2013).

In the experiment the target is wild-type SF162 gp120 (HIV-1 SF162). Description: SPR. Background: SPR reads the build-up and loss of mass on a sensor chip optically.

B1: mAb VRC01 (antibody, V domains shown)
VH: QVQLVQSGGQMKKPGESMRISCRASGYEFIDCTLNWIRLAPGKRPEWMGWLKPRGGAVNYARPLQGRVTMTRDVYSDTAFLELRSLTVDDTAVYFCTRGKNCDYNWDFEHWGRGTPVIVSS
VL: EIVLTQSPGTLSLSPGETAIISCRTSQYGSLAWYQQRPGQAPRLVIYSGSTRAAGIPDRFSGSRWGPDYNLTISNLESGDFGVYYCQQYEFFGQGTKVQVD
Consider B1, for which binding was put at a Kd of 2.08 nM.

A word on the Kd: it is the constant that tells how readily two partners part at equilibrium.
